# Reference: paper PMC3507203 (Biology Open, 2011)
# B1: histidine-tagged Aurora-A (natural protein, human, UniProt O14965 1-403, looked up)
# chain: MDRSKENCISGPVKATAPVGGPKRVLVTQQFPCQNPLPVNSGQAQRVLCPSNSSQRIPLQAQKLVSSHKPVQNQKQKQLQATSVPHPVSRPLNNTQKSKQPLPSAPENNPEEELASKQKNEESKKRQWALEDFEIGRPLGKGKFGNVYLAREKQSKFILALKVLFKAQLEKAGVEHQLRREVEIQSHLRHPNILRLYGYFHDATRVYLILEYAPLGTVYRELQKLSKFDEQRTATYITELANALSYCHSKRVIHRDIKPENLLLGSAGELKIADFGWSVHAPSSRRTTLCGTLDYLPPEMIEGRMHDEKVDLWSLGVLCYEFLVGKPPFEANTYQETYKRISRVEFTFPDFVTEGARDLISRLLKHNPSQRPMLREVLEHPWITANSSKPSNCQNKESASKQS
# Target: T1, GST-tagged KLHL18 (human, UniProt O94889 1-574)
# T1 sequence (looked up): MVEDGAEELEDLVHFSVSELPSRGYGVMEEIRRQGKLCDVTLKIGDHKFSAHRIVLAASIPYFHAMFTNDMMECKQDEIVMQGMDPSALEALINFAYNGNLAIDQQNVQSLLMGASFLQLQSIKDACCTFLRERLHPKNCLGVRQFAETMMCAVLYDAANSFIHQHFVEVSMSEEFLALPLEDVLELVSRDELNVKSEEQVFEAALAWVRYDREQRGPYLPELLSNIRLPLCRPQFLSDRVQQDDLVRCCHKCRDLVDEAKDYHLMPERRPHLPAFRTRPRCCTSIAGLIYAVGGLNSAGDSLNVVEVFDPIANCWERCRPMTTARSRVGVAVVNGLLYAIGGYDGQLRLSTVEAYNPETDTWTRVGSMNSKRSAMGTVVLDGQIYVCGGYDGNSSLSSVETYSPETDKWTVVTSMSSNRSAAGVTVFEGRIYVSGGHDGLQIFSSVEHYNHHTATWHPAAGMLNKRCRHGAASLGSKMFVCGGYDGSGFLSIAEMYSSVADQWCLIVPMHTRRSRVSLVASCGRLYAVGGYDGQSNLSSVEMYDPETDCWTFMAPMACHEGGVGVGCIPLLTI
# Assay: pull-down
binder,measurement,value
B1,binding result,binds
